According to patent publication US12467929:
Each block holds one substance with its values, some of them ahead of it.

Key:
[1] = target: recombinant UBE3A protein (Homo sapiens (Human)) (UniProt Q05086); assay: Simoa; capture GTX, no helper beads; 3E5 0.2 ug/ml; UBE3A 4.00 ng/ml
[2] = target: recombinant UBE3A protein (Homo sapiens (Human)) (UniProt Q05086); assay: Simoa; capture GTX; 3E5 0.1 ug/ml; UBE3A 0.00640 ng/ml
[3] = target: recombinant UBE3A protein (Homo sapiens (Human)) (UniProt Q05086); assay: Simoa; capture GTX; SBG 100 pm; UBE3A 0.00128 ng/ml
[4] = target: recombinant UBE3A protein (Homo sapiens (Human)) (UniProt Q05086); assay: Simoa; capture GTX; 3E5 0.2 ug/ml; UBE3A 0.00640 ng/ml
[5] = target: recombinant UBE3A protein (Homo sapiens (Human)) (UniProt Q05086); assay: Simoa; capture GTX; 3E5 0.1 ug/ml; UBE3A 4.00 ng/ml
[6] = target: recombinant UBE3A protein (Homo sapiens (Human)) (UniProt Q05086); assay: Simoa head-to-head, Table 10; capture MS 2F6; UBE3A 20.0 ng/ml
[7] = target: recombinant UBE3A protein (Homo sapiens (Human)) (UniProt Q05086); assay: Simoa; capture GTX; SBG 150 pm; UBE3A 0.00128 ng/ml
[8] = target: recombinant UBE3A protein (Homo sapiens (Human)) (UniProt Q05086); assay: Simoa; capture GTX; SBG 150 pm; UBE3A 0.0320 ng/ml
[9] = target: recombinant UBE3A protein (Homo sapiens (Human)) (UniProt Q05086); assay: Simoa; capture GTX; SBG 100 pm; UBE3A 0.160 ng/ml
[10] = target: recombinant UBE3A protein (Homo sapiens (Human)) (UniProt Q05086); assay: Simoa head-to-head, Table 11; capture MS 2F6; UBE3A 4.00 ng/ml
[11] = target: recombinant UBE3A protein (Homo sapiens (Human)) (UniProt Q05086); assay: 3-step Simoa; capture MS 2F6; UBE3A 0.010 ng/ml
[12] = target: recombinant UBE3A protein (Homo sapiens (Human)) (UniProt Q05086); assay: Simoa; capture GTX; 3E5 0.1 ug/ml; UBE3A 0.00128 ng/ml
[13] = target: recombinant UBE3A protein (Homo sapiens (Human)) (UniProt Q05086); assay: Simoa; capture GTX; SBG 150 pm; UBE3A 20.0 ng/ml
[14] = target: recombinant UBE3A protein (Homo sapiens (Human)) (UniProt Q05086); assay: Simoa; capture GTX; 3E5 0.4 ug/ml; UBE3A 0.0320 ng/ml
[15] = target: recombinant UBE3A protein (Homo sapiens (Human)) (UniProt Q05086); assay: Simoa; capture GTX; 3E5 0.1 ug/ml; UBE3A 20.0 ng/ml
[16] = target: recombinant UBE3A protein (Homo sapiens (Human)) (UniProt Q05086); assay: Simoa; capture GTX; 3E5 0.8 ug/ml; UBE3A 0.00640 ng/ml
[17] = target: recombinant UBE3A protein (Homo sapiens (Human)) (UniProt Q05086); assay: Simoa; capture GTX, no helper beads; 3E5 0.4 ug/ml; UBE3A 0.00640 ng/ml
[18] = target: recombinant UBE3A protein (Homo sapiens (Human)) (UniProt Q05086); assay: Simoa; capture GTX; SBG 75 pm; UBE3A 0.00128 ng/ml
[19] = target: recombinant UBE3A protein (Homo sapiens (Human)) (UniProt Q05086); assay: Simoa; capture GTX; 3E5 0.1 ug/ml; UBE3A 0.160 ng/ml
[20] = target: recombinant UBE3A protein (Homo sapiens (Human)) (UniProt Q05086); assay: 3-step Simoa; capture GTX; UBE3A 7.81 ng/ml

UniProt Q05086, sequence (Q05086 whole entry): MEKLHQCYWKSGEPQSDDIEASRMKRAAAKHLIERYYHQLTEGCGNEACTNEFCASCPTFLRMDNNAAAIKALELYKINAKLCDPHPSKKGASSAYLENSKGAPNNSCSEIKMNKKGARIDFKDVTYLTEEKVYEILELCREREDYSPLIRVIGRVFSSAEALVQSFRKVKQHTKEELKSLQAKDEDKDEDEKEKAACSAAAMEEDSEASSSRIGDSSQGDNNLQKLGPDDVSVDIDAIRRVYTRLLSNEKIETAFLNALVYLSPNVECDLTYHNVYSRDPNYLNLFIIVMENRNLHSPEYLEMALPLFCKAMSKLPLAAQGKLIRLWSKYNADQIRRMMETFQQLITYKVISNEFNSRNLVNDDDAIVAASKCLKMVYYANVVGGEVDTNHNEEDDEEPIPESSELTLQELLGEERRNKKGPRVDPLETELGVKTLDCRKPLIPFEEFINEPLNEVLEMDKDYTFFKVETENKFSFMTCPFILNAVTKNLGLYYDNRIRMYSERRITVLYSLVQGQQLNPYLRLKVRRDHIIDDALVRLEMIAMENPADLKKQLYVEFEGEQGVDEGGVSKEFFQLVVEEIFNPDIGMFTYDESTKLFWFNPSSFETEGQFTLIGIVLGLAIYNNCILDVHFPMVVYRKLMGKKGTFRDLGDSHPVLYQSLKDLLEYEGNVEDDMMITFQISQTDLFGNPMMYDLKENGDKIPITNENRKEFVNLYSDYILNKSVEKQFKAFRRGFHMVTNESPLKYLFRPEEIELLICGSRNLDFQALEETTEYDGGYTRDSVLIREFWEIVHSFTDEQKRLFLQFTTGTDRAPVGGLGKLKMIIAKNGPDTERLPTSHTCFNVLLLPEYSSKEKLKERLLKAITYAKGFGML

AEB1 [1]: 0.878 | AEB2 [1]: 0.851 | Average AEB [1]: 0.864 | Signal to Background [1]: 89.4 | AEB1 [2]: 0.0251 | AEB2 [2]: 0.0238 | AEB3 [2]: 0.0256 | Average AEB [2]: 0.0248 | Signal to Background [2]: 1.29 | AEB1 [3]: 0.0082 | AEB2 [3]: 0.0092 | AEB3 [3]: 0.0096 | Average AEB [3]: 0.009 | Signal to Background [3]: 1.07 | AEB1 [4]: 0.0421 | AEB2 [4]: 0.0466 | AEB3 [4]: 0.0433 | Average AEB [4]: 0.044 | Signal to Background [4]: 1.12 | AEB1 [5]: 0.848 | AEB2 [5]: 0.891 | AEB3 [5]: 0.878 | Average AEB [5]: 0.873 | Signal to Background [5]: 45.3 | AEB1 [6]: 0.514 | AEB2 [6]: 0.552 | Ave AEB [6]: 0.533 | Signal to Background [6]: 39.4 | AEB1 [7]: 0.013 | AEB2 [7]: 0.018 | AEB3 [7]: 0.0134 | Average AEB [7]: 0.0148 | Signal to Background [7]: 1.12 | AEB1 [8]: 0.0262 | AEB2 [8]: 0.0285 | AEB3 [8]: 0.0282 | Average AEB [8]: 0.0276 | Signal to Background [8]: 2.08 | AEB1 [9]: 0.0582 | AEB2 [9]: 0.0586 | AEB3 [9]: 0.0574 | Average AEB [9]: 0.0581 | Signal to Background [9]: 6.93 | AEB1 [10]: 0.0868 | AEB2 [10]: 0.0803 | Ave AEB [10]: 0.0836 | Signal to Background [10]: 22.1 | AEB1 [11]: 0.0035 | AEB2 [11]: 0.0048 | Ave AEB [11]: 0.0042 | Signal to Background [11]: 1.06 | AEB1 [12]: 0.0242 | AEB2 [12]: 0.0239 | AEB3 [12]: 0.0247 | Average AEB [12]: 0.0243 | Signal to Background [12]: 1.26 | AEB1 [13]: 5.87 | AEB2 [13]: 5.57 | AEB3 [13]: 5.72 | Average AEB [13]: 5.72 | Signal to Background [13]: 431 | AEB1 [14]: 0.0958 | AEB2 [14]: 0.0924 | AEB3 [14]: 0.095 | Average AEB [14]: 0.0944 | Signal to Background [14]: 1.51 | AEB1 [15]: 5.11 | AEB2 [15]: 5.62 | AEB3 [15]: 5.2 | Average AEB [15]: 5.31 | Signal to Background [15]: 276 | AEB1 [16]: 0.114 | AEB2 [16]: 0.127 | AEB3 [16]: 0.117 | Average AEB [16]: 0.12 | Signal to Background [16]: 0.976 | AEB1 [17]: 0.0228 | AEB2 [17]: 0.0232 | Average AEB [17]: 0.023 | Signal to Background [17]: 1.18 | AEB1 [18]: 0.0046 | AEB2 [18]: 0.0045 | AEB3 [18]: 0.0047 | Average AEB [18]: 0.0046 | Signal to Background [18]: 1.06 | AEB1 [19]: 0.0828 | AEB2 [19]: 0.0846 | Average AEB [19]: 0.0837 | Signal to Background [19]: 4.34
Substance: anti-UBE3A antibody 3E5 (SAB1404508-100 ug, Millipore-Sigma)

AEB1 [20]: 0.0143 | AEB2 [20]: 0.0128 | Ave AEB [20]: 0.0135 | Signal to Background [20]: 6.2
Substance: NB500-240 (Novus) (antibody)
